# According to patent US20240158497A1 (published 2024):
# T1: human gp130 extracellular domain (E23-E619) with C-terminal mouse IgG2a Fc (human)
# T1 construct: dimeric; also called hGP130-mFc; human GP130-mFc
# T1 chain: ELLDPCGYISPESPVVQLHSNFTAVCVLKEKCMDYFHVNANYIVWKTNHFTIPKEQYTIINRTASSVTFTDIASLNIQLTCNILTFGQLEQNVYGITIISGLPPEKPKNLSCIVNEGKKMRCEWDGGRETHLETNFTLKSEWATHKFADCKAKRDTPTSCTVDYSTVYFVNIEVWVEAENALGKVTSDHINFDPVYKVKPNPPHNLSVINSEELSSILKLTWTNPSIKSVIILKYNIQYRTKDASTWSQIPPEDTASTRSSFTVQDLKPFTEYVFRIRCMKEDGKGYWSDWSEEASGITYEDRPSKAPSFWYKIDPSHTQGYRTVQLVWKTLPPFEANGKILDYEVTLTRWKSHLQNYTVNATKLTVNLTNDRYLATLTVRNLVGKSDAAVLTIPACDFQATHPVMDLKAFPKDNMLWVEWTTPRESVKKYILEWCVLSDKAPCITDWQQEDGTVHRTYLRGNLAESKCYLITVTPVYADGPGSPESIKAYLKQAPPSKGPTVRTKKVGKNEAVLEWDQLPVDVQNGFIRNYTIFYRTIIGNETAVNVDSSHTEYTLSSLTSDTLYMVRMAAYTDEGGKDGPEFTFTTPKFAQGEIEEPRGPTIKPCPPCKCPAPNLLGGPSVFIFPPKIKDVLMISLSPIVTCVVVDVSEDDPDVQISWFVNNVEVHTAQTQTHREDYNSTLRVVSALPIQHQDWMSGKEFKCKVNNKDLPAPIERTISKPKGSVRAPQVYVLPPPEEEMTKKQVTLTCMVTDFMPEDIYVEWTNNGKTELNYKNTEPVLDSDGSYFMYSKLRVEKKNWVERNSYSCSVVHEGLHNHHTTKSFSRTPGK
# Target: T1, human gp130 extracellular domain …
# Assay: blocking ELISA, 2.5 nM hGP130-mFc on plate-bound CNTFR/CNTF complex; * below lower limit of quantitation 1.25E-09M
# Protocol: The experiment was carried out using the following procedure. Human CNTFRα was coated at a concentration of […] in HBSS on a 96-well microtiter plate overnight at 4° C. […] Human CNTF at a concentration of 1 μg/ml in HBSS was added to the plate bound CNTFRα for 1 hour at room temperature. In separate dilution plates, a constant amount of 2.5 nM of human GP130-mFc protein was titrated with antibodies ranging from 3.4 pM to 200 nM in serial dilution and with no antibody present. These solutions were incubated for 1 hour at room temperature (RT) and subsequently transferred to the microtiter plates with CNTFRα/CNTF complex without washing. The plates were incubated for 2 hours at RT, washed with PBST buffer, and plate-bound hGP130-mFc was detected with an anti-mFc polyclonal antibody conjugated with horseradish peroxidase (HRP) (Jackson ImmunoResearch Inc). Samples were developed with a TMB solution (BD Biosciences, substrate A and B mixed at 1:1 ratio as per manufacturer's instructions) to produce a colorimetric reaction and then neutralized with 1M sulfuric acid before measuring absorbance at 450 nm on a Victor X5 plate reader.
# Data analysis was performed using a sigmoidal dose-response model within Prism™ software (GraphPad). […]
binder,measurement,value
"MAb16666 (antibody, V domains shown, hIgG4 isotype control used) VH: EVQLVESGGGLVQSGGSLRLSCAASGFTFSRYEMNWVRQAPGKGLEWVAYISNTGTTRDYSDSVKGRFTISRDNAKNSLYLQMSSLRVEDTAVYYCVREKFSGTSDWFDPWGQGTLVTVSS VL: not shown",IC50,644 pM
